For experiment [1], the target named is IL-6 (bact-hIL-6, euk-hIL-6 and bact-cy IL-6; 'average binding' of Table 21). Nature of the experiment: average binding level in the off-rate screen (unit not given; n = 1).
For experiment [2], the target named is T1, bacterially produced cynomolgus monkey IL-6 (cynomolgus monkey, UniProt P79341 28-212, limits assumed).
T1 construct: also called bact-cy IL-6; HIS-cyIL-6
Nature of the experiment: off-rate of Fab 111A7 variant on bact-cy IL-6 (binding kinetics, SPR presumed; n = 1).

In another experiment the target is human IL-6 (human, UniProt P05231 30-212). Nature of the experiment: cell-based or functional assay.
Experiment [3] concerns the target T2, eukaryotically produced human IL-6 (human, UniProt P05231 30-212).
T2 construct: Immobilised on the Biacore chip; also called Euk IL-6; EUK IL-6 (3-1)
Nature of the experiment: SPR (Biacore), purified Fab. (SPR reads the build-up and loss of mass on a sensor chip optically.)

Experiment [4] concerns the target T3, bacterially produced human IL-6 (human, UniProt P05231 30-212).
T3 construct: Immobilised on the Biacore chip; also called BACT IL-6 (2-1); bactIL-6
Nature of the experiment: SPR (Biacore), purified Fab.

Experiment [5] has as its target T4, human IL-6 (as added in the B9 and 7TD1 bioassays) (human, UniProt P05231 30-212). Nature of the experiment: cell-based or functional assay.
The target in experiment [6] is T4, human IL-6 (as added in the B9 and 7TD1 …). Nature of the experiment: cell-based or functional assay. This is another data set of the same source.
Experiment [7] shares this target. The experiment can be described thus: cell-based or functional assay. The source holds these as a separate data set.

The values that follow come from patent publication US20220073604A1 (ARGENX BVBA, published 2022).

As a reminder, the koff is a measure of how fast the partners let go of each other. For orientation: Kd means the concentration at which binding is half-saturated. For orientation: kon means the second-order rate constant of association.

Substitutions are numbered along the chain they refer to.

B1: Fab 111A7 with the CDR3 methionine changed to C (Fab, V domains shown)
VH: EVQLLESGGGLVQPGGSLRLSCAASGFTFSSYAMSWVRQAPGKGPEWVSRISAGGGSTYYGDSVKGRFTISRDNSKNTLYLQMNSLRAEDTAVYYCANRAGWGCGDYWGQGTLVTVSS
VL: QTVVTQEPSFSVSPGGTVTLTCGLSSGSVTASNYPGWYQQTPGQAPRALIYSTNDRHSGVPDRFSGSISGNKAALTITGAQAEDEADYYCALDIGDITEFGGGTQLTVL
In experiment [1], B1 yielded an average binding of 42. The same molecule showed a koff in experiment [2] of 9.46e-05 s⁻¹.

B2: Fab 111A7 with the CDR3 methionine changed to R (Fab, V domains shown)
VH: B1 VH with C104R
VL: B1 VL
Consider B2, for which, in experiment [1], the average binding worked out at 64. For the same molecule, the koff in experiment [2] came to 0.000121 s⁻¹.

B3: Fab 111A7 with the CDR3 methionine changed to N (Fab, V domains shown)
VH: B1 VH with C104N
VL: B1 VL
On to B3, for which the average binding in experiment [1] stood at 137. For the same molecule, the koff in experiment [2] stood at 0.000207 s⁻¹.

B4: 111B1 (antibody, V domains shown)
VH: B1 VH with S35Y, A40P, P45L, C104M
VL: B1 VL with Y38F, S69L
Regarding B4, the “IC50, growth of IL-6-dependent 7TD1 cells with 75 pg/ml human IL-6” value (from here on “IC50, growth”) with human IL-6 is < 1 pM.

B5: Fab 111A7 with the CDR3 methionine changed to W (Fab, V domains shown)
VH: B1 VH with C104W
VL: B1 VL
On to B5, for which the average binding in experiment [1] stood at 26. For the same molecule, the koff in experiment [2] turned out to be 0.000177 s⁻¹.

B6: 24D10 (Fab, V domains shown)
VH: QLQVVESGGGLVQPGGSLRLSCAASGFTFSSYAMSWVRQAPGKGPEWVSRISSGGGSTSYADSVKGRFTISRDNAKNTLYLQMNSLKPEDTAVYYCANRAGWGMGDYWGQGTQVTVSS
VL: QTVVTQEPSLSVSPGGTVTLTCGLSSGSVTASNYPGWFQQTPGQAPRALIYSTNDRHSGVPSRFSGSISGNKAALTITGAQPEDEADYYCALDIGDITEFGGGTHLTVLG
notes: Purified Fab
In experiment [3], B6 returned a Kd of 410 pM, a koff of 0.0001 s⁻¹ and a kon of 250000 M⁻¹ s⁻¹. In experiment [4], this molecule registered a Kd of 500 pM, a koff of 0.0001 s⁻¹ and a kon of 210000 M⁻¹ s⁻¹.

B7: 104C1 (antibody, V domains shown)
VH: B1 VH with S35Y, P45L, S75A, L79V, R87K, A88P, C104M, L113Q
VL: B6 VL with L10F, F38Y, S62D, P82A, E83D, A86S, H105K
As for B7, in the experiment with human IL-6, the “IC50, growth” value was < 1 pM.

B8: 61H7 antibody (antibody, V domains shown)
VH: EVQLVESGGGLVQPGGSLRLSCAASGFTFSSYRMYWVRQPPGKGLEWVSAISAGGGSTYYGDSVKGRFTISRDNAKNTVYLQMNSLKPEDTAVYYCANRAGWGMGDYWGQGTQVTVSS
VL: B6 VL
As to B8, the “IC50, growth” value with human IL-6 was < 1 pM.

B9: 61H7 (Fab, V domains shown)
VH: B8 VH
VL: B6 VL
notes: Fab; also called Fab 61H7
In experiment [3], B9 showed a Kd of 450 pM, a koff of 5.5e-05 s⁻¹ and a kon of 120000 M⁻¹ s⁻¹. In addition, in experiment [4], the affinity, expressed as Kd, was 17 pM; the koff was 2e-06 s⁻¹; the kon worked out at 120000 M⁻¹ s⁻¹.

B10: 129D3 antibody (antibody, V domains shown)
VH: EVQLQESGPGLVKPSQTLSLTCTVSGGSITSRYYAWSWIRQPPGKGLEWIGVIDYDGDTYYSPSLKSRVSISWDTSKNQFSLKLSSVTPADTAVYYCARDPDVVTGFHYDYWGQGTMVTVSS
VL: QSALTQPPSVSGTPGQSVTISCAGANNDIGTYAYVSWYQQLPGTAPKLMIYKVTTRASGIPDRFSGSKSGNTASLTISGLQAEDEADYYCASYRNFNNAVFGTGTKLTVL
Turning to B10, in the experiment with human IL-6, the “IC50, growth” value was < 1 pM and the “IC50, proliferation of IL-6-dependent B9 cells with 10 pg/ml human IL-6” value was < 0.1 pM.

B11: 68F2 antibody (antibody, V domains shown)
VH: B10 VH with S31T, I50M, V69T, K83Q, A90E, M117Q
VL: QSALTQPPLVSGTPGQTVTISCAGANNDIGTYAYVSWYQQLPGTAPKLLIYKVTTRASGIPSRFSGSKSGNTASLTISGLQSEDEADYYCASYRNFNNAVFGRGTHLTVLG
As to B11, the “IC50, growth” value with human IL-6 was < 1 pM.

B12: 132E7 (germlined variant of 68F2) (antibody, V domains shown)
VH: B10 VH with S70T, M117T
VL: B10 VL with A3V, S9R, T13A, S17T, M49L, I60V, T72S, S78T, T103G
Consider B12, for which, in experiment [5], the “IC 50, B9 cell proliferation” value was found to be 0.38 pM and the “Rel. potency, B9 cells” value was determined as 2.1. For the same molecule, in experiment [6], the “IC50, 7TD1 cells” value was determined as 0.37 pM and the “Potency relative to 68F2, 7TD1 cells” value was 1.85.

B13: 133E5 (antibody, V domains shown)
VH: B10 VH with E1Q, S70T, A90E, M117Q
VL: B10 VL with T13S, S17T, T103R
On to B13, for which the “IC50, growth” value in the experiment with human IL-6 was < 1 pM.

B14: 68F2 (parental antibody), full-length IgG1 (antibody, V domains shown)
VH: B10 VH with S31T, I50M, V69T, K83Q, A90E, M117Q
VL: B11 VL
On to B14, for which, in experiment [5], the “IC 50, B9 cell proliferation (batch 12.9)” value turned out to be 0.98 pM; the “IC 50, B9 cell proliferation (batch A8.10)” value is 0.62 pM; the “average IC50 of the two 68F2 batches, B9 cells” value worked out at 0.8 pM. In experiment [7], the “IC50, 7TD1 proliferation assay, exp 7.07 (batch 24.06)” value was found to be 1.36 pM; the “IC50, 7TD1 proliferation assay, exp 7.07 (batch #12.9)” value turned out to be 1.46 pM; the “IC50, 7TD1 proliferation assay, exp 22.06 (batch #12.9)” value was 0.803 pM; the “IC50, 7TD1 proliferation assay, exp 29.06 (December batch)” value was found to be 0.645 pM. For the same molecule, in experiment [7], the “IC50, 7TD1 proliferation assay, exp 29.06 (Large batch)” value amounted to 1.31 pM; the “IC50, 7TD1 proliferation assay, exp 29.06 (batch 24.06)” value is 0.56 pM; the “IC50, 7TD1 proliferation assay, exp 29.06 (batch #12.9)” value was 0.521 pM; the “Rel. Potency, 7TD1, exp 29.06 (batch 24.06)” value turned out to be 1. For the same molecule, in experiment [6], the “IC50, 7TD1 cells (batch A8.10)” value came out at 0.67 pM and the “Potency relative to 68F2, 7TD1 cells (batch A8.10)” value is 1.

B15: 133A9 (antibody, V domains shown)
VH: B10 VH with S31T, D56E, S70T, W73V, P89A, A90E
VL: B10 VL with S9L, T13S, S17T, L41P, K68I, A82S
On to B15, for which the “IC50, growth” value in the experiment with human IL-6 is < 1 pM.

B16: 133H2 (antibody, V domains shown)
VH: B10 VH with S31T, V69T, S70T, M117T
VL: B10 VL with S9L, T13S, S17T, L41P, T103S
As to B16, the “IC50, growth” value in the experiment with human IL-6 was < 1 pM.
